# Test results from the RNAGym collection of RNA variant scans (doi:10.1101/gr.219683.116).
# B1: mRNA-splicing (parent)
# chain: AGUUGCUGCUGGGAGCUCCAGCACAGUGAAAUGGACAGAAGGGCAGAGCAA
# Variants of: B1
# Assay: exon inclusion enrichment index; higher = more inclusion; WT1 exon 5 minigene, HEK293
row,Variant,exon inclusion enrichment index
1,C6A U7C C9A U10C G21C C22U,3.3
2,G5A C6U U7A G8U C9A U32G G33A,0.00894
3,G5A U7C G8A U10C G13C A14C,1.19
4,G5A C6U U7A G8U C9A A29G A30G,0.0286
5,G5A C6U U7A G8U C9A A25G,0.293
6,C6A U7A C9A U10A G11U G12C,2.55
7,G5C C6A U7C G8A U10A A25C G26C,0.037
8,G5A C6G U7G C9A G34A,0.00215
9,G5A C6A G8A U10C,0.811
10,G2A U3G G5A C6U U7A G8U C9A,0.0498
11,U3C U4G G5A C6U U7A G8U C9A,0.312
12,G5C C6A U7C G8A U10A A20G G21A,0.186
13,C6A U7A C9U,0.615
14,G5A C6U U7A G8U C9A G38C A39C,0.105
15,G5A U7C G8A U10C A45G G46U,2.26
16,G5C C6A U7C G8A U10A U32G G33U,0.009
17,G5C C6G U7C U10C A47U G48C,2.42
18,G5C C6A U7C G8A U10A G15U C16A,0.0461
19,G5A C6G U7G C9A G12C G13C,0.00164
20,G5C C6U G8C C9U U10C A45C,2.06
21,G28A A29C,0.0703
22,G28A A29U,0.00899
23,C16U U17C,0.038
24,G5C C6A U7C G8A U10A U27A G28A,0.112

row,Variant,exon inclusion enrichment index
1,G5A C6U U7A G8U C9A G11A,0.00945
2,G5U G8U C9U A20G G21A,0.241
3,G5A C6U U7A G8U C9A A40G G41U,0.0544
4,G5C C6A U7C G8A U10A C19A A20G,0.00417
5,G5A U7C G8A U10C A20C G21U,1
6,G5A C6G U7G C9A G43U C44G,0.000892
7,A45U G46C,0.0947
8,G5A C6G U7G C9A C16G,0.00149
9,G5C C6A U7C G8A U10A A47C G48C,0.224
10,C6A U7A C9A U10A A20C G21U,0.286
11,G5U G8U C9U G43C C44A,0.722
12,G5C C6A U7C G8A U10A A37U G38A,0.0332
13,G5A U7C G8A U10C A37C G38U,1.6
14,C6A U7A C9G U10A,0.286
15,C6A U7A C9G U10G,0.0939
16,U3A U4C C6A U7A C9A U10A,1.27
17,G5A C6U U7A G8U C9A A37G,0.17
18,G5C C6A U7C G8A U10A G38A A39G,0.102
19,U4G C6U U7A G8U C9A,0.0761
20,G5C C6A U7C C9A U10C,2.61
21,C6A U7C C9A U10C G41C G42A,2.74
22,G5C C6G U7C U10C A25U G26A,3.89
23,G5C C6G U7C U10C C24A A25C,4.48
24,G5A U7C G8A U10C A29C A30C,2.73

row,Variant,exon inclusion enrichment index
1,G5U G8U C9U G12U G13A,0.000421
2,G5U G8U C9U G26C U27G,0.648
3,G5A C6U U7A G8U C9A C22A,0.0781
4,A20G G21U,2.37
5,G5A,0.039
6,A31G U32A,1.08
7,G5A C6G U7G C9A G13A A14G,0.00529
8,G5C C6A U7C G8A U10A A40G G41U,0.0884
9,G5C C6U G8C C9U U10C A47U G48C,1.37
10,G5A U7C G8A U10C C22U A23G,2.69
11,G5A U7C G8A U10C A35C,0.917
12,G2U G5C C6U G8C C9U U10C,3.26
13,G5A U7C G8A U10C A31U U32A,0.229
14,G5A U7C G8A U10C C44G A45G,0.315
15,G5A U7C G8A U10C A20U G21C,2.33
16,G5C C6G U7C U10C A45G G46U,3.14
17,G5C C6U U7C G8A C9U U10C,1.99
18,C6G U7C C9A U10C,3.21
19,C6A U7C C9A U10C G41A G42C,3.64
20,G5U G8U C9U G34U,0.0349
21,C6A U7C C9A U10C A47C G48A,2.16
22,G5A U7C G8A U10C C24G,2.53
23,G5C C6G U7C U10C C22U,3.4
24,C6G U7C,0.331

row,Variant,exon inclusion enrichment index
1,U3A C6A U7A C9A U10A,0.664
2,G5C C6G U7C U10C U32A G33A,2
3,G5C C6G U7C U10C A40C,3.66
4,G5U G8U C9U G46C,0.148
5,G5A C6U U7A G8U C9A U10A G11U,0.0948
6,G5A U7C G8A U10C C44G,3.26
7,G5C C6G U7C U10C A47G,0.871
8,G5A C6U U7A G8U C9A G46A A47U,0.0808
9,G5A U7C G8A U10C A14C G15C,0.761
10,G5A U7C G8C U10C,1.39
11,G2U,0.476
12,C6A U7A C9A U10A A37U,0.746
13,G5A C6G G8C C9U U10C,0.0763
14,G5A C6U U7A G8U C9A G13U A14U,0.0119
15,G5A U7C G8A U10C A29C,2.01
16,G2U U3C C6A U7C C9A U10C,4.67
17,G5C C6A U7C G8A U10A C18U,0.054
18,G2U U3G C6A U7A C9A U10A,2.07
19,G5C C6A U7C G8A U10A A45C G46U,0.0352
20,G5A C6G U7G C9A C44U A45U,0.000761
21,G5A C6G U7G C9A G11C G12A,0.000679
22,G5A C6U U7A G8U C9A C24G,0.0851
23,C44U,0.0165
24,G5A C6A,0.0111

row,Variant,exon inclusion enrichment index
1,G33A G34C,0.0101
2,G5C C6U G8C C9U U10C G46A A47G,0.717
3,G5U G8U C9U G11C,0.297
4,G5A C6U U7A G8U C9A C44A A45C,0.248
5,G5A C6U U7A G8U C9A C44A A45U,0.189
6,G5A U7C G8A C9A,0.923
7,G5A C6U U7A G8U C9A U27A G28U,0.0109
8,C6A U7C C9A U10C G11A G12A,2.21
9,A35C C36A,0.0616
10,G5A C6G U7G C9A C19G A20C,0.00232
11,G5U G8U C9U C24G A25C,0.663
12,U7C C9A U10C,3.46
13,G5A U7C G8A U10C G42C G43A,3
14,G5A C6U U7A G8U C9A C36G A37G,0.00777
15,G5U G8U C9U G11U G12U,0.00578
16,G5C C6A U7C G8A U10A G13C A14U,0.136
17,C6A U7C C9A U10C U32G G33A,1.61
18,G5A C6U U7A G8U C9A C16G,0.0112
19,C6A U7A C9A U10A A47C G48C,0.797
20,C6A U7A C9A U10A A47C G48U,0.811
21,U3A U4A G5C C6U G8C C9U U10C,1.8
22,U7G G8U,1.91
23,U4C C6A U7C C9A U10C,4.65
24,G5C C6G U7C U10C C22A A23C,3.98

row,Variant,exon inclusion enrichment index
1,G5C C6G U7C U10C C22A A23U,2.83
2,G5C C6U G8C C9U U10C A37G,2.83
3,G5C C6U G8C C9U U10C A37U,1.73
4,G5U G8U C9U A45G,0.366
5,C6A U7C C9A U10C G26U,3.34
6,G5A C6U U7A G8U C9A C16U U17C,0.0363
7,C6A U7A C9A U10A C36A A37C,0.81
8,G5A U7C G8A U10G G11A,2.46
9,A40C G41U,0.0496
10,A40C G41C,0.92
11,G5U U7G G8A C9U,1.04
12,C6A U7C C9A U10C C19U A20C,3.08
13,C6A U7G C9A U10C,0.53
14,C6G U7G C9A,0.0321
15,G5C C6U G8C C9U U10C C36A A37C,2.33
16,G43C C44U,0.086
17,C6A U7C C9U U10A,0.0495
18,G43C,0.209
19,C6A U7A C9A U10A G21A C22G,0.568
20,C6A U7A C9A U10A G21A C22A,0.228
21,G5U G8U C9U G15U C16G,0.064
22,G5C C6G U7C U10C G13A A14U,2.93
23,G5A U7C G8A U10C G21A C22U,1.26
24,G5A U7C G8A U10C G21A C22G,2.31

row,Variant,exon inclusion enrichment index
1,G5A U7C G8A U10C A40C G41U,1.28
2,G5A C6G U7G C9A A20U G21A,0.000815
3,G5C C6U G8C C9U U10C G21C C22G,3.01
4,G5A U7C G8A U10C G33C G34U,1.72
5,G5A C6G U7G C9A G21A,0.00299
6,G5A U7C G8A U10C C44A A45G,3.75
7,G5U U7A G8U C9A,0.367
8,G5C C6U G8C C9U U10C A37C G38U,1.2
9,G5C C6G U7C U10C C18A C19G,1.5
10,C6A U7A C9A U10A A29U A30G,0.739
11,G5C C6U G8C C9U U10C A20C G21C,0.524
12,G5C C6G,0.0268
13,G13C,0.0504
14,G42U G43U,0.54
15,G5C C6A U7C G8U C9U U10A,0.0134
16,G5C C6U G8C C9U U10C G41U G42U,1.74
17,G5C C6A U7C G8A U10A G33A G34C,0.0321
18,G5U G8U C9U C44G A45U,0.0543
19,C6A U7C C9A U10C A47U G48U,2.6
20,G5A C6U U7A G8U C9A G26U U27G,0.261
21,A31U U32C,0.301
22,G5C C6A U7C G8A U10A G28A A29C,0.0469
23,G5C C6A U7C G8A U10A A47U G48C,0.0757
